One molecule from publication PMC9695642, “Conservation of Importin α Function in Apicomplexans: Ivermectin and GW5074 Target Plasmodium falciparum Importin α and Inhibit Parasite Growth in Culture” (International Journal of Molecular Sciences, 2022) can be followed below.

In test [1] the target is His-tagged GCN5-NLS-GFP (NLS of T. gondii histone acetyltransferase GCN5 fused to GFP) (Toxoplasma gondii). Kind of test: AlphaScreen or HTRF; biotinylated IMPαs titrated against His-tagged NLS-GFPs (30 nM); apparent dissociation constant.
For test [2], the target named is His-tagged TGS1-NLS-GFP (NLS of P. falciparum trimethylguanosine synthase fused to GFP) (Plasmodium falciparum). The test is described as above.

B1: Plasmodium falciparum importin α, biotinylated GST fusion protein (natural protein)
chain: MDRRIEARRKEFKKNCDDTRRKREDLVVQIRKQQRECQLESKRAMVMANIGFEENNTYNLNYAKGNQNDSTNDSIYNTSSNNSSNTLEMLKKIPTLAIGVRSNEYVTQLNSTRELRKLLSIEKGPPIQEVINSGVVPYIVEFLKYDDKTDLQFEAAWVITNIASGSQEQTKVVIDNNAVPHLVRLLSSEKEDVCEQAVWALGNIAGDSAECREYVLNQNSLPLLLKILRTSHKRTLIRNAAWTLSNLCRGKPAPKFEIVSKALPTLAALIYNDDEEILTDACWTLSYLSDGSNENINSVLDAGVAERVVELLSHCSFLVQTPALRTVGNIVTGDDLQTDVVVKLGAVQKLSCLLNSSKKSIKKEACWALSNITAGNISQIQAVIDNNVIPQLINILMKEDFEVRKEAAWAISNASSGGSELQIEYLVECGAIHSLSNLLDVEDANIISVTLEGLENILEMGENKKLRDNLPTNPYVHLFEECDSVHKIDALQDRKVDNICNKAWKILYKYFPFVINNELNNAQIPLNNVFANTEDAVLNKDFTFD
modifications: biotin (Sulfo-NHS-Biotin reagent)
Turning to B1, the Kd amounted to 2.5 nM in test [1] and 6.6 nM in test [2].
